Reference: patent publication US20220298217A1 (FLAGSHIP PIONEERING INNOVATIONS VI, published 2022)

B1: R2-36 (peptide)
peptide: AVAEIQLMHQRAKWKLELELKAFLDQILKDVL
B2: R2-37 (peptide)
peptide: AVAEIQLMHQRAKWEIQEIGIKITLELLKEYI
B3: R2-40 (peptide)
peptide: AVAEIQLMHQRAKWDLLIELVKLLHELLKEYI
B4: R2-42 (peptide)
peptide: AVAEIQLMHQRAKWAIQEIGIKITRELLERYL
B5: R2-43 (peptide)
peptide: AVAEIQLMHQRAKWELQEIGIAITLRLLARYI
B6: R2-44 (peptide)
peptide: AVAEIQLMHQRAKWSLREELEKLLKELLKEYI
B7: R2-45 (peptide)
peptide: AVAEIQLMHQRAKWGLEIELLKLLLSLLKEYI
B8: R2-47 (peptide)
peptide: AVAEIQLMHQRAKWDVLIELAKLLAELLRRYH
B9: R2-48 (peptide)
peptide: AVAEIQLMHQRAKWKILEELLKILIDLLKQYI
B10: R2-50 (peptide)
peptide: GVAMLQIMHDLAKIKQELELKDSMKKILEDVL

biological target: T1, PTHR1 on CHO-K1/Ga15/PTHR1 cells (UniProt Q03431 27-593, limits assumed); experiment: cell-based or functional assay
T1 sequence (looked up): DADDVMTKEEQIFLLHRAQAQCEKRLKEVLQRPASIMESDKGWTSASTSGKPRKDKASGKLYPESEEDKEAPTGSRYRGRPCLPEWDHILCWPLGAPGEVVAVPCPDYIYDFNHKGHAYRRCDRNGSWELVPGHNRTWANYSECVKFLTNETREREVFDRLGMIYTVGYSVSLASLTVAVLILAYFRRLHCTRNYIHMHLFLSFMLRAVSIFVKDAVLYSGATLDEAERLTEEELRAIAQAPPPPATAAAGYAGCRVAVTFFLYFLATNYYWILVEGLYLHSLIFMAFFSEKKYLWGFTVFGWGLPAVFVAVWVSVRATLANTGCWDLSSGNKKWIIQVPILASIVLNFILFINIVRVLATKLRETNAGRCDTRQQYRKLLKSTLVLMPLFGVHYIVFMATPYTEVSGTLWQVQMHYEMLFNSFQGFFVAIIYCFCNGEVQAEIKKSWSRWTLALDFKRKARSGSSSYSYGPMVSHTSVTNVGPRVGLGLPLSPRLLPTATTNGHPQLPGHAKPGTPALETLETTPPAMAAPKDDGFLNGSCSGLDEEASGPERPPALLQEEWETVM

Molecule	cAMP accumulation (HTRF): -log10EC50	cAMP accumulation (HTRF): Emax
B1	-8.32 -log10EC50 (as headed)	99%
B2	-9.09 -log10EC50 (as headed)	96.4%
B3	-11.2 -log10EC50 (as headed)	95.1%
B4	-6.54 -log10EC50 (as headed)	97.6%
B5	-10.5 -log10EC50 (as headed)	309%
B6	-10.4 -log10EC50 (as headed)	106%
B7	-11.1 -log10EC50 (as headed)	729%
B8	-9.23 -log10EC50 (as headed)	102%
B9	-7.19 -log10EC50 (as headed)	98.8%
B10	-6.24 -log10EC50 (as headed)	99.8%

biological target: T2, Flag-PTHR1-YFP (UniProt Q03431 27-593); experiment: cell-based or functional assay
T2 sequence (looked up): T1 sequence (looked up)

Molecule	arrestin 2 recruitment (BRET): -log10EC50	arrestin 2 recruitment (BRET): Emax
B1	-8.7 -log10EC50 (as headed)	7.53
B2	-5.86 -log10EC50 (as headed)	17
B3	-5.85 -log10EC50 (as headed)	13.9
B4	-8.37 -log10EC50 (as headed)	7.53
B5	-8.03 -log10EC50 (as headed)	7.45
B6	-8.46 -log10EC50 (as headed)	7.63
B7	-5.76 -log10EC50 (as headed)	16.1
B8	-5.77 -log10EC50 (as headed)	15.2
B9	-15.2 -log10EC50 (as headed)	6.42
B10	-10.5 -log10EC50 (as headed)	6.45

biological target: Flag-PTHR1-YFP (parathyroid hormone receptor 1) expressed in transfected HEK293T cells (human) (UniProt Q03431); experiment: cell-based or functional assay

Molecule	arrestin 1, plate 25: -log10EC50	arrestin 1, plate 25: Emax	arrestin 2, plate 26: -log10EC50	arrestin 2, plate 26: Emax
PTH 7-36 antago (peptide)	-6.98 -log10EC50	7.68	-7.33 -log10EC50	8.04
